In experiment [1] the target is HLA-A*03:01. Put plainly: IEDB peptide-MHC binding, purified MHC/direct/fluorescence; filed as Kd, often an IC50 or EC50 that approximates it; ≥ and ≤ were set here for values at or beyond the usual limits of such assays.
Experiment [2] addresses HLA-A*11:01. The description is as above.
For a further experiment, the target named is HLA-B*58:01. The experiment is described as above.
The next experiment deals with HLA-B*08:01. The description is as above.
For experiment [3], the target named is HLA-B*15:01. The description is as above.
The target of experiment [4] is HLA-A*26:01. The description is as above.
For another experiment, the target named is HLA-B*40:01. The experiment is described as above.
For the next experiment, the target named is HLA-B*27:05. The description is as above.
The next experiment concerns the target HLA-A*01:01. The experiment is described as above.
The target of experiment [5] is HLA-A*02:01. Described as above.
For another experiment, the target named is HLA-A*30:01. The description is as above. The following applies: source organism: Corynebacterium glutamicum.
A further experiment concerns the target HLA-A*24:03. Described as above.
For another experiment, the target named is HLA-B*07:02. The description is as above.
Experiment [6] deals with HLA-B*15:01. Put plainly: IEDB peptide-MHC binding, purified MHC/competitive/fluorescence; ≥ and ≤ were set here for values at or beyond the usual limits of such assays.
Experiment [7] concerns the target HLA-A*02:01. The experiment is described as above.
Experiment [8] has as its target HLA-A*03:01. Described as above.
The target in experiment [9] is HLA-A*11:01. Described as above.
A further experiment deals with HLA-A*24:02. The experiment is described as above.
Another experiment deals with HLA-C*15:02. Put plainly: IEDB peptide-MHC binding, purified MHC/direct/fluorescence; filed as Kd, often an IC50 or EC50 that approximates it; ≥ and ≤ were set here for values at or beyond the usual limits of such assays.
Another experiment deals with HLA-B*35:01. Put plainly: IEDB peptide-MHC binding, purified MHC/competitive/fluorescence; filed as Kd, often an IC50 or EC50 that approximates it; ≥ and ≤ were set here for values at or beyond the usual limits of such assays. The following applies: source organism: Influenza A virus H3N2.
In experiment [10] the target is HLA-A*23:01. The description is as above. As to conditions: source organism: Bacillus cereus ATCC 14579.
The target of a further experiment is HLA-B*18:01. Put plainly: IEDB peptide-MHC binding, purified MHC/direct/fluorescence; filed as Kd, often an IC50 or EC50 that approximates it; ≥ and ≤ were set here for values at or beyond the usual limits of such assays.
The next experiment addresses HLA-B*46:01. The description is as above.
The next experiment concerns the target HLA-A*69:01. The experiment is described as above.
The next experiment deals with HLA-B*44:02. Described as above.
Another experiment deals with HLA-A*02:12. The description is as above. As to conditions: source organism: Zaire ebolavirus.
The target of experiment [11] is HLA-A*23:01. The description is as above. As to conditions: source organism: Zaire ebolavirus.
The next experiment concerns the target HLA-A*31:01. Described as above. The following applies: source organism: Sudan ebolavirus - Maleo (1979).
A further experiment deals with HLA-B*57:01. Described as above.
The target in another experiment is HLA-A*29:02. The description is as above.
The target of the next experiment is HLA-A*02:11. The description is as above. The following applies: source organism: Zaire ebolavirus.
The next experiment deals with HLA-A*68:02. The experiment is described as above. As to conditions: source organism: Zaire ebolavirus.
For another experiment, the target named is HLA-B*15:17. Put plainly: IEDB peptide-MHC binding, purified MHC/competitive/fluorescence; filed as Kd, often an IC50 or EC50 that approximates it; ≥ and ≤ were set here for values at or beyond the usual limits of such assays. As to conditions: source organism: Zaire ebolavirus.
Experiment [12] has as its target HLA-A*26:01. The experiment is described as above. The following applies: source organism: Zaire ebolavirus.
A further experiment deals with HLA-B*27:03. The description is as above. The following applies: source organism: Zaire ebolavirus.
In another experiment the target is HLA-B*39:01. Described as above. As to conditions: source organism: Zaire ebolavirus.
In another experiment the target is HLA-B*51:01. The experiment is described as above. The following applies: source organism: Zaire ebolavirus.
In another experiment the target is HLA-C*05:01. Put plainly: IEDB peptide-MHC binding, purified MHC/direct/fluorescence; filed as Kd, often an IC50 or EC50 that approximates it; ≥ and ≤ were set here for values at or beyond the usual limits of such assays. As to conditions: source organism: Mycobacterium tuberculosis variant bovis BCG str. Pasteur 1173P2.
Another experiment has as its target HLA-B*08:02. The description is as above. The following applies: source organism: Brucella suis 1330.
Setting [13] is: source organism: Corynebacterium glutamicum.
The mark [14] stands for this setting: source organism: Zaire ebolavirus.
[15] abbreviates: source organism: Sudan ebolavirus.
[16] abbreviates: source organism: Sudan ebolavirus - Maleo (1979).
[17] abbreviates: source organism: Vaccinia virus.
The mark [18] stands for this setting: source organism: Treponema denticola.

As to ATQPVHWFL, the equilibrium dissociation constant (Kd) in the experiment with HLA-A*03:01 [1] (setting [13]) was not below 20 µM; in the experiment with HLA-A*11:01 [2] (setting [13]), 0.021 µM; with HLA-B*58:01 (setting [13]), 0.444 µM; with HLA-B*08:01 (setting [13]) it was not below 20 µM; with HLA-B*15:01 [3] (setting [13]), not below 20 µM; with HLA-A*26:01 [4] (setting [13]) it was not below 20 µM. Further, the Kd with HLA-B*40:01 (setting [13]) was not below 20 µM; with HLA-B*27:05 (setting [13]) it was not below 20 µM; with HLA-A*01:01 (setting [13]), 3.13 µM; with HLA-A*02:01 [5] (setting [13]), 0.115 µM; with HLA-A*30:01, 0.0317 µM; in the experiment with HLA-A*24:03 (setting [13]), 0.00444 µM. The sequence further showed a Kd in the experiment with HLA-B*07:02 (setting [13]) of 6.67 µM.

AVSHLTTLA: the IC50 with HLA-B*15:01 [6] (setting [14]) was not below 135 µM; with HLA-A*02:01 [7] (setting [14]), 3.08 µM.

For IIIAVARKH, the IC50 with HLA-A*03:01 [8] (source organism: Variola virus) was 35.5 µM; with HLA-A*11:01 [9] (source organism: Variola virus) it was 14.5 µM; with HLA-A*24:02 (source organism: Variola virus), 2.98 µM; in the experiment with HLA-B*15:01 [6] (source organism: Variola virus), 36.4 µM; with HLA-A*02:01 [7] (source organism: Variola virus) it was 50.9 µM.

As to ILFQKAFSM, the IC50 is 15.7 µM in the experiment with HLA-A*03:01 [8] (setting [15]); 54.8 µM in the experiment with HLA-A*11:01 [9] (setting [15]); 0.336 µM in the experiment with HLA-A*24:02 (setting [15]); 4.24 µM with HLA-B*15:01 [6] (setting [15]); 0.626 µM with HLA-A*02:01 [7] (setting [15]).

As for ILMEHIHKL, the Kd with HLA-C*15:02 (source organism: Rattus norvegicus) came to 0.239 µM.

For the sequence KLFSYGTLI, the IC50 with HLA-A*03:01 [8] (source organism: Variola virus) came to 5.5 µM; with HLA-B*15:01 [6] (source organism: Variola virus), 26.2 µM; with HLA-A*02:01 [7] (source organism: Variola virus), 0.61 µM.

For KSRRFTVRF, the results for the Kd with HLA-B*58:01 (source organism: Mycobacterium tuberculosis) and with HLA-C*15:02 (source organism: Mycobacterium tuberculosis variant bovis BCG str. Pasteur 1173P2) were 0.422 µM and not below 20 µM, respectively.

With LTITYSSSM, the Kd in the experiment with HLA-A*26:01 [4] (source organism: Influenza A virus (A/swine/Miyagi/5/2003(H1N2))) came to 0.0618 µM; in the experiment with HLA-B*35:01 it was 1.18 µM.

Take LYSLWTKRK: the Kd in the experiment with HLA-A*23:01 [10] turned out to be 0.245 µM.

As for MHYKLDEVL, the Kd in the experiment with HLA-A*03:01 [1] (setting [16]), with HLA-B*18:01 (setting [16]), with HLA-B*46:01 (setting [16]), with HLA-A*11:01 [2] (setting [16]), with HLA-A*69:01 (setting [16]) and with HLA-B*44:02 (setting [16]) was not below 20 µM each time. Further, the Kd with HLA-B*58:01 (setting [16]), with HLA-B*08:01 (setting [16]), with HLA-B*15:01 [3] (setting [16]), with HLA-B*40:01 (setting [16]), with HLA-B*27:05 (setting [16]) and with HLA-A*02:12 was not below 20 µM throughout. For the same sequence, the Kd with HLA-A*23:01 [11], with HLA-A*31:01, with HLA-B*57:01 (setting [16]), with HLA-A*01:01 (setting [16]), with HLA-A*29:02 (setting [16]) and with HLA-A*02:01 [5] (setting [16]) was not below 20 µM each time. Moreover, the Kd with HLA-A*02:11, with HLA-A*68:02, in the experiment with HLA-A*24:03 (setting [14]), with HLA-B*07:02 (setting [16]), in the experiment with HLA-B*15:17 and with HLA-A*26:01 [12] was not below 20 µM each time. In addition, the figures for the Kd with HLA-B*27:03, in the experiment with HLA-B*39:01 and with HLA-B*51:01 were not below 20 µM, 0.0041 µM and not below 20 µM, respectively.

For RAFRNLNVT, the half-maximal inhibitory concentration (IC50) with HLA-B*15:01 [6] (setting [17]) is not below 77.9 µM; with HLA-A*02:01 [7] (setting [17]) it was 48.3 µM.

On to RQDEVGTPF, for which the Kd in the experiment with HLA-A*69:01 (setting [18]) is not below 20 µM; with HLA-C*05:01 it was not above 0.001 µM; in the experiment with HLA-A*02:01 [5] (setting [18]), 2.01 µM.

In the experiment with HLA-B*15:01 [6] (source organism: Variola virus), SQVPKLLLW displayed an IC50 not below 121 µM.

As to TVCGGIMFL, in the experiment with HLA-C*15:02 (source organism: human gammaherpesvirus 4), the Kd is 2.47 µM. That is a single-digit micromolar value.

In the case of VTTPARTAF, the Kd with HLA-B*58:01 (source organism: Mycobacterium avium 104) is 1.1 µM; with HLA-C*15:02 (source organism: Mycobacterium tuberculosis C), not below 20 µM.

On to YFNVLDEKY, for which the IC50 with HLA-A*24:02 (setting [17]) is 33 µM; in the experiment with HLA-B*15:01 [6] (setting [17]), not below 283 µM.

Take YQRRRRFAI: the Kd in the experiment with HLA-A*03:01 [1] (source organism: Brucella suis) is not below 20 µM; with HLA-B*18:01 (source organism: Brucella suis), not below 20 µM; with HLA-B*46:01 (source organism: Brucella suis), not below 20 µM; with HLA-B*08:02, 0.367 µM; with HLA-A*69:01 (source organism: Brucella suis) it was not below 20 µM; in the experiment with HLA-B*44:02 (source organism: Brucella suis) it was not below 20 µM. Moreover, the equilibrium dissociation constant (Kd) with HLA-B*58:01 (source organism: Brucella suis), with HLA-B*40:01 (source organism: Brucella suis), with HLA-B*57:01 (source organism: Brucella suis), with HLA-A*01:01 (source organism: Brucella suis), with HLA-A*29:02 (source organism: Brucella suis) and in the experiment with HLA-A*02:01 [5] (source organism: Brucella suis) was not below 20 µM each time. The same sequence showed a dissociation constant (Kd) in the experiment with HLA-B*07:02 (source organism: Brucella suis) not below 20 µM.

The term Kd denotes the concentration at which binding is half-saturated. Usually IC50 stands for the midpoint of a concentration-inhibition curve.

The values above are taken from the Immune Epitope Database (IEDB).
